The labels stand for the following.
B1: CDC25B (parent)
chain: FVDILESDLKDDDAVPPGMESLIS
B2: PTPN9 (parent)
chain: NKWTVQYNVSPLSWNVAVKFLMAR
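Also: lentivirally expressed fusions sorted by FACS into six bins by GFP to DsRed ratio, PSI derived from sequencing read proportions per bin multiplied by bin number.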

Variants of B1 are the subject of one data set. Put plainly: protein stability index of a GFP-peptide fusion (GPS, HEK-293T) (PSI 1-6); higher = more stable. Conditions: c terminus: a fixed tail appended.
As for FFDILESDLKDDDAVPPGMESLIS [V2F], the protein stability index was 4.08.

FGDILESDLKDDDAVPPGMESLIS [V2G]: the protein stability index was determined as 3.81.

Regarding FIDILESDLKDDDAVPPGMESLIS [V2I], the protein stability index came out at 3.8.

For the variant FNDILESDLKDDDAVPPGMESLIS [V2N], the protein stability index was 4.96.

Take FCDILESDLKDDDAVPPGMESLIS [V2C]: the protein stability index stood at 3.65.

Consider FADILESDLKDDDAVPPGMESLIS [V2A], for which the protein stability index is 4.51.

Turning to FHDILESDLKDDDAVPPGMESLIS [V2H], the protein stability index is 4.68.

FMDILESDLKDDDAVPPGMESLIS [V2M]: the protein stability index is 4.76.

As for FLDILESDLKDDDAVPPGMESLIS [V2L], the protein stability index turned out to be 3.73.

On to FDDILESDLKDDDAVPPGMESLIS [V2D], for which the protein stability index stood at 5.14.

As to FEDILESDLKDDDAVPPGMESLIS [V2E], the protein stability index amounted to 5.29.

As to FKDILESDLKDDDAVPPGMESLIS [V2K], the protein stability index was found to be 4.67.

For RVDILESDLKDDDAVPPGMESLIS [F1R], the protein stability index came to 4.96.

For the variant QVDILESDLKDDDAVPPGMESLIS [F1Q], the protein stability index is 5.4.

Turning to MVDILESDLKDDDAVPPGMESLIS [F1M], the protein stability index stood at 4.59.

Take DVDILESDLKDDDAVPPGMESLIS [F1D]: the protein stability index is 5.24.

In the case of SVDILESDLKDDDAVPPGMESLIS [F1S], the protein stability index was 5.39.

As to IVDILESDLKDDDAVPPGMESLIS [F1I], the protein stability index was 4.33.

As to TVDILESDLKDDDAVPPGMESLIS [F1T], the protein stability index amounted to 5.31.

Turning to HVDILESDLKDDDAVPPGMESLIS [F1H], the protein stability index was found to be 5.4.

As to NVDILESDLKDDDAVPPGMESLIS [F1N], the protein stability index came to 5.3.

Turning to VVDILESDLKDDDAVPPGMESLIS [F1V], the protein stability index is 4.08.

As for AVDILESDLKDDDAVPPGMESLIS [F1A], the protein stability index was 5.

Turning to CVDILESDLKDDDAVPPGMESLIS [F1C], the protein stability index turned out to be 4.49.

EVDILESDLKDDDAVPPGMESLIS [F1E]: the protein stability index is 5.37.

KVDILESDLKDDDAVPPGMESLIS [F1K]: the protein stability index was found to be 5.17.

Turning to YVDILESDLKDDDAVPPGMESLIS [F1Y], the protein stability index worked out at 3.83.

Take GVDILESDLKDDDAVPPGMESLIS [F1G]: the protein stability index turned out to be 5.23.

LVDILESDLKDDDAVPPGMESLIS [F1L]: the protein stability index was 4.81.

In the case of WVDILESDLKDDDAVPPGMESLIS [F1W], the protein stability index stood at 2.5.

As to PVDILESDLKDDDAVPPGMESLIS [F1P], the protein stability index amounted to 5.46.

The next data set covers variants of B2. The description is as above. To be noted: c terminus: a fixed tail appended.
With NKWTVQYNVSPLSWNVAVKFLFAR [M22F], the protein stability index was found to be 3.6.

Consider NKWTVQYNVSPLSWNVAVKFLDAR [M22D], for which the protein stability index worked out at 2.27.

Consider NKWTVQYNVSPLSWNVAVKFLIAR [M22I], for which the protein stability index is 2.72.

Regarding NKWTVQYNVSPLSWNVAVKFLGAR [M22G], the protein stability index is 1.83.

As for NKWTVQYNVSPLSWNVAVKFLTAR [M22T], the protein stability index is 2.09.

NKWTVQYNVSPLSWNVAVKFLPAR [M22P]: the protein stability index amounted to 2.29.

NKWTVQYNVSPLSWNVAVKFLCAR [M22C]: the protein stability index was found to be 2.06.

As to NKWTVQYNVSPLSWNVAVKFLNAR [M22N], the protein stability index was found to be 2.06.

For the variant NKWTVQYNVSPLSWNVAVKFLHAR [M22H], the protein stability index amounted to 2.36.

Turning to NKWTVQYNVSPLSWNVAVKFLYAR [M22Y], the protein stability index worked out at 3.05.

As for NKWTVQYNVSPLSWNVAVKFLEAR [M22E], the protein stability index came out at 1.73.

Consider NKWTVQYNVSPLSWNVAVKFLKAR [M22K], for which the protein stability index was determined as 2.73.

NKWTVQYNVSPLSWNVAVKFLRAR [M22R]: the protein stability index was found to be 1.88.

Consider NKWTVQYNVSPLSWNVIVKFLMAR [A17I], for which the protein stability index came out at 3.65.

With NKWTVQYNVSPLSWNVQVKFLMAR [A17Q], the protein stability index worked out at 3.33.

With NKWTVQYNVSPLSWNVDVKFLMAR [A17D], the protein stability index is 1.78.

With NKWTVQYNVSPLSWNVFVKFLMAR [A17F], the protein stability index came to 1.58.

As to NKWTVQYNVSPLSWNVKVKFLMAR [A17K], the protein stability index amounted to 2.28.

Regarding NKWTVQYNVSPLSWNVNVKFLMAR [A17N], the protein stability index was 1.22.

For the variant NKWTVQYNVSPLSWNVTVKFLMAR [A17T], the protein stability index worked out at 2.28.

In the case of NKWTVQYNVSPLSWNVRVKFLMAR [A17R], the protein stability index came to 1.47.

Consider NKWTVQYNVSPLSWNVPVKFLMAR [A17P], for which the protein stability index came out at 2.37.

Turning to NKWTVQYNVSPLSWNVMVKFLMAR [A17M], the protein stability index is 2.92.

In the case of NKWTVQYNVSPLSWNVHVKFLMAR [A17H], the protein stability index is 2.23.

Take NKWTVQYNVSPLSWNVAVRFLMAR [K19R]: the protein stability index amounted to 2.64.

In the case of NKWTVQYNVSPLSWNVAVMFLMAR [K19M], the protein stability index was 2.06.

Turning to NKWTVQYNVSPLSWNVAVAFLMAR [K19A], the protein stability index was found to be 1.74.

As to NKWTVQYNVSPLSWNVAVHFLMAR [K19H], the protein stability index was determined as 3.44.

NKWTVQYNVSPLSWNVAVQFLMAR [K19Q]: the protein stability index was determined as 3.01.

Take NKWTVQYNVSPLSWNVAVCFLMAR [K19C]: the protein stability index stood at 2.41.

For NKWTVQYNVSPLSWNVAVPFLMAR [K19P], the protein stability index stood at 1.28.

For NKWTVQYNVSPLSWNVAVFFLMAR [K19F], the protein stability index stood at 1.89.

For NKWTVQYNVSPLSWNVAVEFLMAR [K19E], the protein stability index is 3.72.

Consider NKWTVQYNVSPLSWNVAVYFLMAR [K19Y], for which the protein stability index came out at 3.14.

NKWTVQYNVSPLSWNVAVNFLMAR [K19N]: the protein stability index stood at 1.63.

As for NKWTVQYNVSPLSWNVAVTFLMAR [K19T], the protein stability index is 2.69.

For NKWTVQYNVSPLSWNVAVDFLMAR [K19D], the protein stability index stood at 3.33.

In the case of NKWTVQYNVSPLSWNVAVLFLMAR [K19L], the protein stability index is 3.29.

As for NKWTVQYNVSPLSWNPAVKFLMAR [V16P], the protein stability index came out at 1.99.

For NKWTVQYNVSPLSWNYAVKFLMAR [V16Y], the protein stability index is 2.6.

On to NKWTVQYNVSPLSWNLAVKFLMAR [V16L], for which the protein stability index amounted to 2.38.

With NKWTVQYNVSPLSWNRAVKFLMAR [V16R], the protein stability index came out at 3.68.

As to NKWTVQYNVSPLSWNQAVKFLMAR [V16Q], the protein stability index is 1.52.

As to NKWTVQYNVSPLSWNDAVKFLMAR [V16D], the protein stability index was 1.93.

In the case of NKWTVQYNVSPLSWNEAVKFLMAR [V16E], the protein stability index turned out to be 2.65.

Regarding NKWTVQYNVSPLSWNKAVKFLMAR [V16K], the protein stability index was determined as 3.3.

As for NKWTVQYNVSPLSWNGAVKFLMAR [V16G], the protein stability index was found to be 2.55.

As for NKWTVQYNVSPLSWNCAVKFLMAR [V16C], the protein stability index is 3.82.

For the variant NKWTVQYNVSPLSWNMAVKFLMAR [V16M], the protein stability index came out at 3.58.

Regarding NKWTVQYNVSPLSWNFAVKFLMAR [V16F], the protein stability index is 3.88.

In the case of NKWTVQYNVSPLSWNAAVKFLMAR [V16A], the protein stability index worked out at 2.35.

On to NKWTVQYNVSPLSWNSAVKFLMAR [V16S], for which the protein stability index worked out at 1.87.

As for NKWTVQYNVSPLSWNNAVKFLMAR [V16N], the protein stability index turned out to be 1.51.

Consider NKWTVQYNVSPLSWNHAVKFLMAR [V16H], for which the protein stability index is 2.69.

NKWTVQYNVSPLSWNVAVKFLMCR [A23C]: the protein stability index came out at 1.95.

As for NKWTVQYNVSPLSWNVAVKFLMMR [A23M], the protein stability index is 3.33.

As to NKWTVQYNVSPLSWNVAVKFLMLR [A23L], the protein stability index worked out at 4.22.

Turning to NKWTVQYNVSPLSWNVAVKFLMFR [A23F], the protein stability index turned out to be 2.72.

In the case of NKWTVQYNVSPLSWNVAVKFLMSR [A23S], the protein stability index amounted to 2.48.

With NKWTVQYNVSPLSWNVAVKFLMRR [A23R], the protein stability index was 2.58.

As for NKWTVQYNVSPLSWNVAVKFLMHR [A23H], the protein stability index stood at 3.31.

Take NKWTVQYNVSPLSWNVAVKFLMDR [A23D]: the protein stability index is 2.21.

As to NKWTVQYNVSPLSWNVAVKFLMVR [A23V], the protein stability index stood at 2.43.

The record behind these values is the supplement of paper PMC10567573.
